Results as given in patent US20170158742A1.
“And” between values parts separate entries of the source, which are not always exact repeats. Identical values can stand only once.

Tests used:
[1] = target: Nuclear speckle splicing regulatory protein 1 (human) (UniProt Q9H0G5)
[2] = target: Signal recognition particle 19kDa (human) (UniProt P09132)
[3] = target: Cyclin B3 (human) (UniProt Q8WWL7)
[4] = target: WAS/WASL interacting protein family, member 1 (human) (UniProt O43516)
[5] = target: RAD51 associated protein 1 (human) (UniProt Q96B01)
Sequence of RAD51 associated protein 1 (human) (Q96B01 whole entry): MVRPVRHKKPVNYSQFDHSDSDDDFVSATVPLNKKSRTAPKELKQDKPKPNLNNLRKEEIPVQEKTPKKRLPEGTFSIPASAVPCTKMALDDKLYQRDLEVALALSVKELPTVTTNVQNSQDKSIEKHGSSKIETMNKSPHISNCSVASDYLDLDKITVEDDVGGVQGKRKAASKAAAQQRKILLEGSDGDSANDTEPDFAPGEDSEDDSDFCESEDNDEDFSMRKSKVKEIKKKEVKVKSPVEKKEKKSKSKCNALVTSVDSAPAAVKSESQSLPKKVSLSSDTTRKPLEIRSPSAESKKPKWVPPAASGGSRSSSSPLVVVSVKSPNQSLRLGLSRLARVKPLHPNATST

[6] = target: Rtf1, Paf1/RNA polymerase II complex component, homolog (S. cerevisiae) (human) (UniProt Q92541)
[7] = target: Ubiquitin-conjugating enzyme E2S (human) (UniProt Q16763)
Sequence of Ubiquitin-conjugating enzyme E2S (human) (Q16763 whole entry, the tested form may be a part): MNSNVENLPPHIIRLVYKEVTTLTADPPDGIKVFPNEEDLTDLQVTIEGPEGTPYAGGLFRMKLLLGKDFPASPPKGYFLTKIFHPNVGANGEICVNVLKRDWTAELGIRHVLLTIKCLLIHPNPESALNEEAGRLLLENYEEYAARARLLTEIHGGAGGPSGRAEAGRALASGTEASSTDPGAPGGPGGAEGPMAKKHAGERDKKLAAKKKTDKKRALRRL

[8] = target: WD repeat domain 5 (human) (UniProt P61964)
[9] = target: DIM1 dimethyladenosine transferase 1 homolog (S. cerevisiae) (human) (UniProt Q9UNQ2)
Sequence of DIM1 dimethyladenosine transferase 1 homolog (S. cerevisiae) (human) (Q9UNQ2 whole entry): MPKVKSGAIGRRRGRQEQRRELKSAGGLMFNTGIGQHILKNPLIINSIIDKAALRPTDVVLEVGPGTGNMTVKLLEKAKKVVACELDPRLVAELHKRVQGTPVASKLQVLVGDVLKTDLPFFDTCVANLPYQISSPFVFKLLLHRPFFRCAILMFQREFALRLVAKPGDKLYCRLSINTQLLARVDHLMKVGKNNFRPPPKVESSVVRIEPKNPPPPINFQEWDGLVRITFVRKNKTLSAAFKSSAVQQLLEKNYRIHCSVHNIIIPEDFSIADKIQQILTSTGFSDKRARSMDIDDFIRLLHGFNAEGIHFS

[10] = target: Piccolo (presynaptic cytomatrix protein) (human) (UniProt Q9Y6V0)
Sequence of Piccolo (presynaptic cytomatrix protein) (human) (Q9Y6V0 other isoform, or with tags, fused parts or gaps limits assumed): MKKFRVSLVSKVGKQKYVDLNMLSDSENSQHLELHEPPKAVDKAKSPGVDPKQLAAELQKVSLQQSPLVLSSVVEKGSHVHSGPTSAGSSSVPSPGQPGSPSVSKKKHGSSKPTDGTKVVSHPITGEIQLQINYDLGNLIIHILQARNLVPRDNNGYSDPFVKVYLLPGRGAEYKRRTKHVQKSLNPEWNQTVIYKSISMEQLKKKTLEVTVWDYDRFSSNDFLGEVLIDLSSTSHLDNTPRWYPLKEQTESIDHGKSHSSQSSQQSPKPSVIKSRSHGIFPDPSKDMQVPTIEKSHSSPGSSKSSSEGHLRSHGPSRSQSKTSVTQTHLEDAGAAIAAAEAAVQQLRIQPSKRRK

[11] = target: p 53-regulated DDA3 (DDA3)/proline/serine-rich coiled-coil 1 (human) (UniProt Q6PGN9)
[12] = target: Cortactin (human) (UniProt Q14247)
[13] = target: Potassium channel tetramerisation domain containing 18 (human) (UniProt Q6PI47)
Sequence of Potassium channel tetramerisation domain containing 18 (human) (Q6PI47 whole entry, the tested form may be a part): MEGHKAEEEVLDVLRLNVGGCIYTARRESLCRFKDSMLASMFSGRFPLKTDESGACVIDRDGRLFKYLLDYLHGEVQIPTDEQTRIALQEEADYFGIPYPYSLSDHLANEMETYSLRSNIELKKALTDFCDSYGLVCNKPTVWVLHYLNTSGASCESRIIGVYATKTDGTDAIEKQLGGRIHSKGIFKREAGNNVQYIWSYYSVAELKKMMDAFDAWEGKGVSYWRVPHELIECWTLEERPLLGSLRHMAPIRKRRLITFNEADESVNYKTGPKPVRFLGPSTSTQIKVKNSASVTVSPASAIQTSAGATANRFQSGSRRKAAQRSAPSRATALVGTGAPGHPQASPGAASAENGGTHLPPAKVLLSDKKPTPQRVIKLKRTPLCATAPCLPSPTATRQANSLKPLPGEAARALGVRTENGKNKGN

[14] = target: Calcium channel, voltage-dependent, beta 1 subunit (human) (UniProt Q02641)
[15] = target: Vaccinia related kinase 1 (human) (UniProt Q99986)
Sequence of Vaccinia related kinase 1 (human) (Q99986 whole entry): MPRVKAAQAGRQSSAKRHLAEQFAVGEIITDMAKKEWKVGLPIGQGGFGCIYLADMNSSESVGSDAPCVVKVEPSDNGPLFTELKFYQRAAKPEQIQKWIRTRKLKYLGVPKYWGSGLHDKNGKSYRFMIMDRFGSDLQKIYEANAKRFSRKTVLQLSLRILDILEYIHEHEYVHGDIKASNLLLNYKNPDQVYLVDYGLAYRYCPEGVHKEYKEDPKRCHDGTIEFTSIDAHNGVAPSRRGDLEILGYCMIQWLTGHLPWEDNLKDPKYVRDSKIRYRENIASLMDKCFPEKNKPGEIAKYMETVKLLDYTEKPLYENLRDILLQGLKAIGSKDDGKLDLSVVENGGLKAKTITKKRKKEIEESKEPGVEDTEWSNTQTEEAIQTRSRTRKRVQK

[16] = target: Elongation factor 1 homolog (ELF1, S. cerevisiae) (human) (UniProt P60002)
[17] = target: SLAIN motif family, member 2 (human) (UniProt Q9P270)
[18] = target: CDKN2A interacting protein (human) (UniProt Q9NXV6)
Sequence of CDKN2A interacting protein (human) (Q9NXV6 whole entry): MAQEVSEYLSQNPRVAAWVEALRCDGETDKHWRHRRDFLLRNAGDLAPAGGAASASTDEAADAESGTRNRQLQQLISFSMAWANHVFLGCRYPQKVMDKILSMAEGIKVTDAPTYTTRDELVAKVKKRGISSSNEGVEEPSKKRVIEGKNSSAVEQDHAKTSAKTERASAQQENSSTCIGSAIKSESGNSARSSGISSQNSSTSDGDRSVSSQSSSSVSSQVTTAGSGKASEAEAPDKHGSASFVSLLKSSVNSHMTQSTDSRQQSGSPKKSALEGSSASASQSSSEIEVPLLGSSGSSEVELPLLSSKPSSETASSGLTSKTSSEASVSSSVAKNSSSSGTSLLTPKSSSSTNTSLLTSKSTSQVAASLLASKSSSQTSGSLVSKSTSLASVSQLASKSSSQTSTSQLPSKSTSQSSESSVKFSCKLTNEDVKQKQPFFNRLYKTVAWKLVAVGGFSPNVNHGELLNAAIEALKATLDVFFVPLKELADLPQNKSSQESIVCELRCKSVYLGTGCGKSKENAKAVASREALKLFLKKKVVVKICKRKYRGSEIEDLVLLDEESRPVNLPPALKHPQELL

[19] = target: Calcium/calmodulin-dependent protein kinase II alpha (human) (UniProt Q9UQM7)
[20] = target: Microtubule-associated protein 2 (human) (UniProt P11137)
[21] = target: Aurora kinase A (human) (UniProt O14965)
[22] = target: Protein kinase C, iota (human) (UniProt P41743)
Sequence of Protein kinase C, iota (human) (P41743 10-596 limits assumed): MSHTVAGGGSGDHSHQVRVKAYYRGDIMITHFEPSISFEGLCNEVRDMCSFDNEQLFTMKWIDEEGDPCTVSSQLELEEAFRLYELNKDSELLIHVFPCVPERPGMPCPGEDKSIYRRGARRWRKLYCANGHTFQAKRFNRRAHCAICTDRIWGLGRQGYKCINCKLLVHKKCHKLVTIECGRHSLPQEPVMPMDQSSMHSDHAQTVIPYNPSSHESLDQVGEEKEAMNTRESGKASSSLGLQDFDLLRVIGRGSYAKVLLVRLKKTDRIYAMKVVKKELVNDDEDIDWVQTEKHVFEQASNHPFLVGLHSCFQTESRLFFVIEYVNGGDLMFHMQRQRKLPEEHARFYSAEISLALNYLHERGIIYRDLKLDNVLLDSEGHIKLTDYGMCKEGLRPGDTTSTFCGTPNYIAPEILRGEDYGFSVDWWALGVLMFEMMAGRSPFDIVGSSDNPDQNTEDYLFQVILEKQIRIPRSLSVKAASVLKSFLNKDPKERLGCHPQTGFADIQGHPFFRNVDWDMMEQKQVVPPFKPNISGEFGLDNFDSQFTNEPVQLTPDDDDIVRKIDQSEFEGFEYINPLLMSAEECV

[23] = target: Eukaryotic translation initiation factor 1 A, Y-linked (human) (UniProt O14602)
[24] = target: Choline kinase alpha (human) (UniProt P35790)
[25] = target: Additional sex combs like 1 (Drosophila) (human) (UniProt Q8IXJ9)
[26] = target: Immunoglobulin (CD79A) binding protein 1 (human) (UniProt P78318)
[27] = target: NIMA (never in mitosis gene a)-related kinase 7 (human) (UniProt Q8TDX7)
Sequence of NIMA (never in mitosis gene a)-related kinase 7 (human) (Q8TDX7 whole entry): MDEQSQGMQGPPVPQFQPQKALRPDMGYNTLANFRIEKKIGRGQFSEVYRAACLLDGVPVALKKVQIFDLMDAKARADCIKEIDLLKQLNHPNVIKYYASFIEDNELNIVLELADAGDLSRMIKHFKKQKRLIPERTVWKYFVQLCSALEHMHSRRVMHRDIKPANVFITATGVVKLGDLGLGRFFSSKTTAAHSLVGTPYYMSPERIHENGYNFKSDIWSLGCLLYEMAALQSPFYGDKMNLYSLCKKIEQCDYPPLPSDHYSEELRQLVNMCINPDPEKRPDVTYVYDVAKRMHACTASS

[28] = target: Checkpoint suppressor 1/Forkhead box N3 (human) (UniProt O00409)
Sequence of Checkpoint suppressor 1/Forkhead box N3 (human) (O00409 other isoform, or with tags, fused parts or gaps limits assumed): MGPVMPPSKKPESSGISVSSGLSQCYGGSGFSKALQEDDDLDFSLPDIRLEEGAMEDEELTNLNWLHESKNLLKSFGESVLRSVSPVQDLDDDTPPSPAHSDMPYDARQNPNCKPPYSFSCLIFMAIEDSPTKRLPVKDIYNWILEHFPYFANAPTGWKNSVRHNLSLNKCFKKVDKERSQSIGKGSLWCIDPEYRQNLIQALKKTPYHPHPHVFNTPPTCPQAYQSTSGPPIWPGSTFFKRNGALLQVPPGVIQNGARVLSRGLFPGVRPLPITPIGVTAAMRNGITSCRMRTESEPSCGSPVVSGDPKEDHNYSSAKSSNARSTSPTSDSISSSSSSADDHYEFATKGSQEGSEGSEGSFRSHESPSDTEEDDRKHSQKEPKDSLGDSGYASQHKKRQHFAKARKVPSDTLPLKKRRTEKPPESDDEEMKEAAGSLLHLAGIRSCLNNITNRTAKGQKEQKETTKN

[29] = target: AF4/FMR2 family, member 4 (human) (UniProt Q9UHB7)
[30] = target: Eukaryotic translation initiation factor 1 A, X-linked (human) (UniProt P47813)
Sequence of Eukaryotic translation initiation factor 1 A, X-linked (human) (P47813 whole entry): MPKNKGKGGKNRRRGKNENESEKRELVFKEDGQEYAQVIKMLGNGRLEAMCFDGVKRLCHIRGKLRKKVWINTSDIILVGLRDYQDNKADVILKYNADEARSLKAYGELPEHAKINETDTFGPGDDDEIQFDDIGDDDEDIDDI

Sequence of Signal recognition particle 19kDa (human) (P09132 whole entry): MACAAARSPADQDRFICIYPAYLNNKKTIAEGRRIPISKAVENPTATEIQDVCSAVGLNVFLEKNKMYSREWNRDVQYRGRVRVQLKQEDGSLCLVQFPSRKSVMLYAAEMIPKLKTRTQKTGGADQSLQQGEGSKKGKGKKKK
Sequence of Nuclear speckle splicing regulatory protein 1 (human) (Q9H0G5 whole entry): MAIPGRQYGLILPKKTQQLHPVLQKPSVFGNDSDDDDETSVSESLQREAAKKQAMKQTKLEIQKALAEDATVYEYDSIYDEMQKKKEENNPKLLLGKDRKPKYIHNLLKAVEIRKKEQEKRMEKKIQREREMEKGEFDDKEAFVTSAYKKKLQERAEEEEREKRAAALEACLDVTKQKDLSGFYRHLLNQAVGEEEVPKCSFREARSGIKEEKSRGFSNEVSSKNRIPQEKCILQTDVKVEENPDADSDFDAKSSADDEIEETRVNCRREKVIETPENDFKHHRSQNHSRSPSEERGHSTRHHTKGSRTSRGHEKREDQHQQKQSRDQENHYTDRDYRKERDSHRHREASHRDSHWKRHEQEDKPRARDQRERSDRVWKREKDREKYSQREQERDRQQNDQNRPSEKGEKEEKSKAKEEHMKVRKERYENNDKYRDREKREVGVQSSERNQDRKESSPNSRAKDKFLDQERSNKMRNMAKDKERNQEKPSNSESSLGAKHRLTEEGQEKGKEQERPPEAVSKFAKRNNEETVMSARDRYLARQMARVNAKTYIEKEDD

biotinylated full-length Dengue virus capsid (DENV C) protein
Signal Intensity [1]: 928 | Z-score [1]: 3.53 | Signal Intensity [2]: 972 and 818 | Z-score [2]: 3.73 and 3.02 | Signal Intensity [3]: 854 | Z-score [3]: 3.19 | Signal Intensity [4]: 1160 | Z-score [4]: 4.59 | Signal Intensity [5]: 1140 | Z-score [5]: 4.52 | Signal Intensity [6]: 882 | Z-score [6]: 3.32 | Signal Intensity [7]: 1350 | Z-score [7]: 5.49 | Signal Intensity [8]: 840 | Z-score [8]: 3.13 | Signal Intensity [9]: 1670 | Z-score [9]: 6.93 | Signal Intensity [10]: 929 | Z-score [10]: 3.53 | Signal Intensity [11]: 822 | Z-score [11]: 3.04 | Signal Intensity [12]: 3080 | Z-score [12]: 13.4 | Signal Intensity [13]: 856 | Z-score [13]: 3.2 | Signal Intensity [14]: 1020 | Z-score [14]: 3.94 | Signal Intensity [15]: 845 | Z-score [15]: 3.15 | Signal Intensity [16]: 816 | Z-score [16]: 3.02 | Signal Intensity [17]: 2570 | Z-score [17]: 11.1 | Signal Intensity [18]: 1030 | Z-score [18]: 4.01 | Signal Intensity [19]: 969 | Z-score [19]: 3.72 | Signal Intensity [20]: 875 | Z-score [20]: 3.29 | Signal Intensity [21]: 1160 | Z-score [21]: 4.59 | Signal Intensity [22]: 841 | Z-score [22]: 3.13 | Signal Intensity [23]: 852 | Z-score [23]: 3.18 | Signal Intensity [24]: 1740 | Z-score [24]: 7.26 | Signal Intensity [25]: 1070 | Z-score [25]: 4.19 | Signal Intensity [26]: 1940 | Z-score [26]: 8.18 | Signal Intensity [27]: 918 | Z-score [27]: 3.49 | Signal Intensity [28]: 918 | Z-score [28]: 3.48 | Signal Intensity [29]: 1250 | Z-score [29]: 5.02

biotinylated full-length Dengue virus capsid (DENV C) protein (other; other documents disagree on this pair)
Signal Intensity [30]: 997 | Z-score [30]: 3.85
